{
  "source": "the nanobody polyreactivity screen of Harvey et al. (2022)",
  "data": [
    {"assay": "yeast display, Sf9 membrane polyspecificity reagent, FACS + sequencing; frameworks hold sequencing errors", "procedure,_shortened": "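Synthetic nanobody libraries on Saccharomyces cerevisiae BJ5465 were galactose-induced for 36–48 hours, stained 1 hour at 4 °C with 10% biotinylated, detergent-solubilized Sf9 membrane reagent and enriched on streptavidin microbeads. FACS then separated cells into low and high (top ~1%) gates by anti-HA (expression) and streptavidin (reagent binding) fluorescence. Genes were colony-PCR amplified, MiSeq 2 × 250 sequenced and CDR-length filtered. A clone's polyreactivity label is that of its gate of origin.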", "values": [
      {"sequence": "QVQLVESGGGLVQAGGSLRLSCAASGPIFTSNAMGWYRQAPGKERELVAAISRRGTRTYYADSVKGRFTISRDNAKNTVYLQMNSLKPEDTAVYYCAAGWTTRYFGGVDYWGQGTQVTVSS", "polyreactivity (PSR sort gate)": "high polyreactivity"},
      {"sequence": "QVQLVESGGGLVQAGGSLRLSCAASGPIFVYYARGWYREAPGKEREFVAAISASGGSTYYADSVKGRFTISRDTAKNTVYLQMNSLKPEDPAVYYCAADRLRNRPRGLREYYWGQGTQVTVSS", "polyreactivity (PSR sort gate)": "low polyreactivity"},
      {"sequence": "QVQLVESGGGLVQAGGSLRLSCAASGPILGQYAMGGYRQAPGKERELVAAITYSGGRTYYADSVKGRFTISRDIAKNTVYLQMNSLKPEDTAVYYCAARGRASVERRGGYYYWGQGTQVTVSS", "polyreactivity (PSR sort gate)": "high polyreactivity"},
      {"sequence": "QVQLVESGGGLVQAGGSLRLSCAASGPTFAKNTMGWYRQAPGKERELVAAISWRGGRTYYADSVKGRFTISRDNAKNTVYLQMNSLKPEDTAVYYCAAASTIHRHGMDYWGQGTQVTVSS", "polyreactivity (PSR sort gate)": "high polyreactivity"},
      {"sequence": "QVQLVESGGGLVQAGGSLRLSCAASGPTFGGYTMGWYRQAPGKERELVAAITWSGGRTYYADSVKGRFTISRDNAKNTVYLQMNSLKPEDTAVYFCATSRSRERPLHNGPYYYWGLGTQVTVSS", "polyreactivity (PSR sort gate)": "high polyreactivity"},
      {"sequence": "QVQLVESGGGLVQAGGSLRLSCAASGPTFHGYDMGWNRQAPGKERELVARINWSDGRTYYADSVKGRFTISRDNAKNTVYLQMISLKPEDTAVYYCAADKTGSYAPAWYYYWGQGTQVTVSS", "polyreactivity (PSR sort gate)": "low polyreactivity"},
      {"sequence": "QVQLVESGGGLVQAGGSLRLSCAASGPTFRANAMGWYRQAPGKEREMVAAISQRGGNTYYADSVKGRFTISRDKAKNTVYLQMNSLKPEDTAVYYCSADITTYRRGRYEYEYWGQGTQVTVSS", "polyreactivity (PSR sort gate)": "high polyreactivity"},
      {"sequence": "QVQLVESGGGLVQAGGSLRLSCAASGPTFTYNAMGWYRQAPGKERELVATINSVDSTYADSVKGRFTISRDNAKNTVYLQMNSMKPEDTAVYYCNAGFPLSLWLGDYWGQGTQVTVSS", "polyreactivity (PSR sort gate)": "low polyreactivity"},
      {"sequence": "QVQLVESGGGLVQAGGSLRLSCAASGPTFYLYDTMGWYRQAPGKERELVAAISWDDGDTYYADSVKGRFTISRDNAKTTVYLQMNSLKPEDTAVYYCAAEYLSGAHGYWGQGTHVTVSS", "polyreactivity (PSR sort gate)": "low polyreactivity"},
      {"sequence": "QVQLVESGGGLVQAGGSLRLSCAASGPTFYYYAMGWYRQAPGKERELVAAITWSGGSTYYADSVKGRFTISRDNAKNTVYLQMNSLKPEDTAVYYCAADVTYSRYEYWGQGTQVTVSS", "polyreactivity (PSR sort gate)": "low polyreactivity"},
      {"sequence": "QVQLVESGGGLVQAGGSLRLSCAASGQTFDWYAMGWYRQAPGKERELVAAITSVGSTYYADSVKGRFTISRDNAKNSVYLQMNSLKPEDTAVYYCAVEGVIWSFWPYEYWGQGTQVTVSS", "polyreactivity (PSR sort gate)": "high polyreactivity"},
      {"sequence": "QVQLVESGGGLVQAGGSLRLSCAASGQTFYYYAMGWYRQAPGKERELVAAINSSGGITFYADSVKGRFTISRDNAKNTVYLQMNSLKPEDTAVYYCAAGGRSKRYVYWGQGTQVTVSS", "polyreactivity (PSR sort gate)": "low polyreactivity"},
      {"sequence": "QVQLVESGGGLVQAGGSLRLSCAASGRICTRYMGWYRQAPGKERELVATINWSGGSTYYADSVKGRFTISRDNAKNTVYLQMNSLKPEDTAVYYGNARNVDFYYVQYNGAKIFDYWGQGTQVTVSS", "polyreactivity (PSR sort gate)": "low polyreactivity"},
      {"sequence": "QVQLVESGGGLVQAGGSLRLSCAASGRICVINAMGWYRQAPGKERELVATIDRGGSTNYADSVKGRFSISRDNAKNTVYLQMNSLKPEDTAVYYCAAGVVGKRSRTGYYWGQGTQVTVSS", "polyreactivity (PSR sort gate)": "low polyreactivity"},
      {"sequence": "QVQLVESGGGLVQAGGSLRLSCAASGRIFAANVMGWYRQAPWKERELVAAISWNGGSTYYADSVKGRFTISRDNAKNTVYLQMNSLKPEDTAVYYCAVRGSYRGWYDYWGQGTQVTVSS", "polyreactivity (PSR sort gate)": "high polyreactivity"},
      {"sequence": "QVQLVESGGGLVQAGGSLRLSCAASGRIFADNAMGWYRQAPGKERELVADITYSGGSTYYADSVKGRFTISRDSAKNTVYLQMNSLKPEDTAVYYCAKQGVDYWGQGTQVTVSS", "polyreactivity (PSR sort gate)": "low polyreactivity"},
      {"sequence": "QVQLVESGGGLVQAGGSLRLSCAASGRIFADYAMGWYRQAPGKERELVAAISWRGGSRYYADSVKGRFTSSRDNAKNTVYLQMNSLKPEDTAVYYCNKASPADYDYWGQGTQVTVSS", "polyreactivity (PSR sort gate)": "low polyreactivity"},
      {"sequence": "QVQLVESGGGLVQAGGSLRLSCAASGRIFAFYAMGWYRQAPGKEREFVAAITYSGGNTNYADSVKGRFTISRDNAKNTVYLQMNSLKPEDTAVYYCAAALVYGVYYQEDYWGQGTQVTVSS", "polyreactivity (PSR sort gate)": "low polyreactivity"},
      {"sequence": "QVQLVESGGGLVQAGGSLRLSCAASGRIFAGYAMGWYRQAPGKERELVASIRSSGSTYYADSVKGRFTISRDNAKNTVYLQMNSLKPEDTAVYYCNKYVPYRHLWDYGYWGQGTQVTVSS", "polyreactivity (PSR sort gate)": "high polyreactivity"},
      {"sequence": "QVQLVESGGGLVQAGGSLRLSCAASGRIFAGYGMGWYRQAPGKERELVAAISSGGSTYYADSVKGRFTISRDNAKNTVYLQMTSLKPEDTAVYDCATDGQSVPDDYYQNVDYDYWGQGTQVAVSS", "polyreactivity (PSR sort gate)": "low polyreactivity"},
      {"sequence": "QVQLVESGGGLVQAGGSLRLSCAASGRIFAGYTMGWYRQAPGKERELVAAISWSGGRTYYADSVKGRFTISRDNAKYTVYLQMNSLKPEDTAVYYCNKVGWYHNYYYWGQGTQVTVSS", "polyreactivity (PSR sort gate)": "high polyreactivity"},
      {"sequence": "QVQLVESGGGLVQAGGSLRLSCAASGRIFAGYVMGWYRQAPGKERELVAAISGSGASTYYADSVKGRFTISRDNAKNTVFLQMNSLKPEDTAVYYCAADKPGIVSRFDYWGQGTQVTVSS", "polyreactivity (PSR sort gate)": "low polyreactivity"},
      {"sequence": "QVQLVESGGGLVQAGGSLRLSCAASGRIFAHYAMGWYRPAPGKERELVAAISSGGSTYYADSVKGRFTISRDNAKNTVYLQMKSLKPEDTAVYYCNKRPVRRKYDYWGQGTQVTVSS", "polyreactivity (PSR sort gate)": "low polyreactivity"},
      {"sequence": "QVQLVESGGGLVQAGGSLRLSCAASGRIFAKNTMGWYRQAPGKERELVAAISRSGGRTYYADSVKGRFTISRDNAKNTVYLQMNSLKPEDTAVYYCSKDVKGSYAYDSWGQGTQVTVSS", "polyreactivity (PSR sort gate)": "high polyreactivity"},
      {"sequence": "QVQLVESGGGLVQAGGSLRLSCAASGRIFALYTMGWYIQAPGKERELVAAITTSGGSTYADSVKGRFTISRDNAKNTVYLQMNSLKPEDTAVYYCNAQGYEGLGEFDYWGQGTQLTVSS", "polyreactivity (PSR sort gate)": "low polyreactivity"},
      {"sequence": "QVQLVESGGGLVQAGGSLRLSCAASGRIFANNAMGWYRQAPGKEREFVAAINYSGTSTYYADSVKGRFTISRDNAKNTVYLQMNSLKPEDTAVYYCAADLPYYPYLYDYWGQGTQVTVSS", "polyreactivity (PSR sort gate)": "low polyreactivity"},
      {"sequence": "QVQLVESGGGLVQAGGSLRLSCAASGRIFAPYAMGWYRQAPGKERELVAAISWRVGSTYYADSVKVRFTISRDYAKNTVYLQMNSLKPDDTAVYYCAARPSYRYDYLGQGTQVTVSS", "polyreactivity (PSR sort gate)": "high polyreactivity"},
      {"sequence": "QVQLVESGGGLVQAGGSLRLSCAASGRIFAQYAMGWYRQAPGKERELVAGIDRRGGSTYYADSVKGRFTISRDNAKNTVYLQMNILKPEDTAVYYCAAYGTTGVYRGPGYDYWGQGTQVTVSS", "polyreactivity (PSR sort gate)": "low polyreactivity"},
      {"sequence": "QVQLVESGGGLVQAGGSLRLSCAASGRIFAQYAMGWYRQAPVKERELVAGIDRRGGSTYYADSVKGRFTISRDNAKNTVYLQMNSLKPEDTAVYYCAAYGTTGVYRGPGYDYWGQATQVTVSS", "polyreactivity (PSR sort gate)": "low polyreactivity"},
      {"sequence": "QVQLVESGGGLVQAGGSLRLSCAASGRIFARNTMGWYRQAPGKERELVAAISWGGGRTYYADSVKGRFTISRDNAKNTVYLQMNSLKPEDTAVFYCAAETLQIPRGEYWGQGTQVTVSS", "polyreactivity (PSR sort gate)": "low polyreactivity"},
      {"sequence": "QVQLVESGGGLVQAGGSLRLSCAASGRIFARYAMGWYRQAPGKERELVAAISRGGSTKYADSVKGRFTISRDNAKNTVYLQMNSLKPEDTAVYYCARQLWGSPYGAYYAGDYWGQGTQVTVSS", "polyreactivity (PSR sort gate)": "low polyreactivity"},
      {"sequence": "QVQLVESGGGLVQAGGSLRLSCAASGRIFARYAMGWYRQAPGKERELVAAITKSVGSTYYADSVKGRFTNSRDNAKNTVYLQMNSLKPEDTAVYYCNAVARGYGYDYWGQGTQVTVSS", "polyreactivity (PSR sort gate)": "high polyreactivity"},
      {"sequence": "QVQLVESGGGLVQAGGSLRLSCAASGRIFARYAMGWYRQAPWKERELVADITTGGSTDYADSVKGRFTISRDNAKNTVYLQMNSLKPEDTAVYYCAKDHHPPGKGQSVSLGYDYWGQGTQVTVSS", "polyreactivity (PSR sort gate)": "low polyreactivity"},
      {"sequence": "QVQLVESGGGLVQAGGSLRLSCAASGRIFARYAMRMYRQAPEKERELVDYINSGDNTYYADSVKWRFTISRDNAKNTVYLQMNSLKPDATAVYYCAAVVGRRQSSSSRFEYDYWGQGTQVTVSS", "polyreactivity (PSR sort gate)": "low polyreactivity"},
      {"sequence": "QVQLVESGGGLVQAGGSLRLSCAASGRIFASNAMGWYRQAPGKERELVAAIDQGGGSSYYADSVKGRFTISRDNAKNTVYLLMNSLKPEDTAVYYCAADYITAYPRLYNYWGQGTQVTVSS", "polyreactivity (PSR sort gate)": "low polyreactivity"},
      {"sequence": "QVQLVESGGGLVQAGGSLRLSCAASGRIFAVNAMGWYRQAPGKERELVAAISWSGGITRYADSVKGRFTISRDNAKNTVYLQMNSLKPEDTAVYYCNASQWPSRFDYWGQGTQVTVSS", "polyreactivity (PSR sort gate)": "low polyreactivity"},
      {"sequence": "QVQLVESGGGLVQAGGSLRLSCAASGRIFAVYAMGWYRQAPGKEREFVAAISYSGGITYYADSVKGRFTISRDNAKNTVYLQMNSLKPEDTAVYYCNAYYYFWGQGTQVTVSS", "polyreactivity (PSR sort gate)": "low polyreactivity"},
      {"sequence": "QVQLVESGGGLVQAGGSLRLSCAASGRIFAVYAMGWYRQAPGKERELVAAINNGASTNYADSVKGRFTISRDNAKNTVYLQMNSLKPEDTAVYYCAAYGYWGQGTQVTVSS", "polyreactivity (PSR sort gate)": "high polyreactivity"},
      {"sequence": "QVQLVESGGGLVQAGGSLRLSCAASGRIFAVYAMGWYRQAPGKERELVAAIRWSGVRTYYADSVKGRFTISRDNAKNTVYLQMNSLKPEDTAVYYCAAEYSGQYYSPVSFLYDYWGQGTQVTVSS", "polyreactivity (PSR sort gate)": "high polyreactivity"},
      {"sequence": "QVQLVESGGGLVQAGGSLRLSCAASGRIFAWNAMGCYRQAPGKERELVAGISGSGGSTYYADSVKGRFTISRDNAKNTVYFQMNSLKPEDTAVYYCAARRRYDGWGGYWGQGTQVTVSS", "polyreactivity (PSR sort gate)": "high polyreactivity"},
      {"sequence": "QVQLVESGGGLVQAGGSLRLSCAASGRIFAWNAMGWYRQAPGTERELVARIRVSGGRTYYADSVKGRFTISRDNAKNTVYLQMNSLKPEDTAVDYCNAYLRSGSMDYWGQGTQVTVSS", "polyreactivity (PSR sort gate)": "high polyreactivity"}
    ]}
  ]
}
